What follows are sequences tested on MS2 coat protein (assay: apparent KD of MS2 coat protein; higher = weaker reporter binding). Settings: Eterna round: R107; input ligand: arginine 13.2 mM.
Method in brief: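 The buffer was 100 mM Tris-HCl pH 7.5 with 80 mM KCl and 4 mM MgCl2, used without or with constant ligand. In it, RNA switches transcribed on-chip from Illumina sequencing clusters were titrated with SNAP-549-labelled MS2 coat protein in twofold steps from 0.7 or 1.5 nM to 3 µM. Apparent KD for each design is the median of its normalised cluster binding-curve fits.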

Sequence | apparent KD of MS2 coat protein [nM]
ACAUGAGGAUCACCCAUGUCAGGGCACGAUACCAGCUGAUCCGGUGGCCCUUGGCAGCGUGACGAGUGGUCAUGAGGAUCACACG [?fmullin] | 75.8
AAAGCCACUUCGGCCGCCACUACAACAUGAGGAUCACCCAUGUACCUCGUGUACGGUCCGAGGAGUAGGACCGGGAAGUGGUGGA [(T1'')-(Trp1)-(Ms2)-(M')-(T2')-(M'')-(Trp2)-(T1')] | 94
UGUCCUCAUGCGGCCGCCACUGUCGGCCGCCACUAAACCUGAGGAUCACCCGGGUAGGACCGGGACAGGACCGGGCAUGGGUGCU [#DoubleAptamer 4 #AlternativeMS2] | 47.4
AAUAACAAGAGGAUCACCCUUGUAAAAGAUACCAGAGUGAUGAUCCUCCCUUGGCAGCUUAACGCUGAUUGAUUACAAUCAGCGA | 27
AUACAUGAGGAUCACCCAUGUGAUGGCCGGCGAGGACCGGUACGGCCGCCACUCGUGAUCCGUCCUGAAAGCAAAGCUCCCAGCA [Lalazare] | 25.1
GACCCAUGAGUUGGAAAAGCUCAUGGGUCGCGAGGACCGGUACGGCCGCCACUCGGCUGUACAUGAGGAUCACCCAUGUCAGGGU [#1 Same State - Tryptophan A Attempt #25 (HarryS)] | 96.9
AGUCUUAAUGGAAGGAGCGCAGUCAUAACAUGAGGAUCACCCAUGUCGAUGUGAGGGUCAUUGCAGGUAGGUCGCCAUACUAAGA [Same State - Arginine B (Freestyle 4)] | 24.7
GGGCAAGAGGGAAGGAGCGUUAGCUGAGUCACAUGAGGAUCACCCAUGUCGCACAUAGUAUGACAGGUAGGUCGCCCUCUACCCU [SS-ArgB14] | 17.7
GUAGGUCAGUGAUCCCGACCUACACUGGAAGGAGCGAGCGAAAGCUCAGGUAGGUCGCCAGAAACAUGAGGAUCACCCAUGUAAU [(A)''-(M)'-(A)'-(Arg1)-(Arg2)-(M1)-(M2)_Design1] | 76.1
AUAAGUAAUGUUUCGUGUAUUAUUACAGAUACCAGACUAUACGUUGUCCCUUGGCAGCUGGAUUACAUGAGGAUCACCCAUGUUG [JR_ExcTheophyA_Sub002] | 16
AGUUUGGACUCGGCCGCCACUCGUGAUGCUUUGGCACAUGAGGAUCACCCAUGUGGUCGGCCUUAGAGGACCGGGAGUACCAGCC [Edesceso] | 82.5
AGAUUCGACACGGCCGCCACUCGUGACGGAUUUCCGAGUGUCGAACAUGAGGAUCACCCAUGUACGAGGACCGGGUGUUGAGUCU [XTryp B #13] | 39.6
GCUAGCCGAAAGGCUAGCAAGGCUACAGAAGGAGCGUGCGAAAGCACAGGUAGGUCGCUGAGCUUGAGGAUCACCCAAGUUGCCU [SSAA - Alter Amptam #1 V+V2] | 26.2
GGAUAGGACACGGCCGCCACUGCGCUAGGAUACUAGAACAUUUCCUCACAUGAGGAUCACCCAUGUAGGACCGGGUGUCCUAUCG | 34
UGUAUGGACUGAAGGAGCGGGUUGAUAAUCUGAGGAUCACCCAGGUAAAAGGCGAAAGCCGCCCAGGUAGGUCGCAGUCCAUACU | 20.5
AUCGUACCUAAUGAUACCAGCAAGUGAUCAUAACAUGAGGAUCACCCAUGUAAUCAGUGAUGCCCUUGGCAGCAUAAUCGUUACA [Same State - Theophylline B (Freestyle 2)] | 94.7

Same assay, conditions: Eterna round: R107; input ligand: none

Sequence | apparent KD of MS2 coat protein [nM]
ACAUGAGGAUCACCCAUGUCAGGGCACGAUACCAGCUGAUCCGGUGGCCCUUGGCAGCGUGACGAGUGGUCAUGAGGAUCACACG [?fmullin] | 128
UGUCCUCAUGCGGCCGCCACUGUCGGCCGCCACUAAACCUGAGGAUCACCCGGGUAGGACCGGGACAGGACCGGGCAUGGGUGCU [#DoubleAptamer 4 #AlternativeMS2] | 315
AAUAACAAGAGGAUCACCCUUGUAAAAGAUACCAGAGUGAUGAUCCUCCCUUGGCAGCUUAACGCUGAUUGAUUACAAUCAGCGA | 35.5
GACCCAUGAGUUGGAAAAGCUCAUGGGUCGCGAGGACCGGUACGGCCGCCACUCGGCUGUACAUGAGGAUCACCCAUGUCAGGGU [#1 Same State - Tryptophan A Attempt #25 (HarryS)] | 125
AGUCUUAAUGGAAGGAGCGCAGUCAUAACAUGAGGAUCACCCAUGUCGAUGUGAGGGUCAUUGCAGGUAGGUCGCCAUACUAAGA [Same State - Arginine B (Freestyle 4)] | 31
GGGCAAGAGGGAAGGAGCGUUAGCUGAGUCACAUGAGGAUCACCCAUGUCGCACAUAGUAUGACAGGUAGGUCGCCCUCUACCCU [SS-ArgB14] | 15.6
GUAGGUCAGUGAUCCCGACCUACACUGGAAGGAGCGAGCGAAAGCUCAGGUAGGUCGCCAGAAACAUGAGGAUCACCCAUGUAAU [(A)''-(M)'-(A)'-(Arg1)-(Arg2)-(M1)-(M2)_Design1] | 172
GCUAGCCGAAAGGCUAGCAAGGCUACAGAAGGAGCGUGCGAAAGCACAGGUAGGUCGCUGAGCUUGAGGAUCACCCAAGUUGCCU [SSAA - Alter Amptam #1 V+V2] | 66.7
UGUAUGGACUGAAGGAGCGGGUUGAUAAUCUGAGGAUCACCCAGGUAAAAGGCGAAAGCCGCCCAGGUAGGUCGCAGUCCAUACU | 25.3

Same assay, conditions: Eterna round: R107; input ligand: theophylline 20 uM

Sequence | apparent KD of MS2 coat protein [nM]
ACAUGAGGAUCACCCAUGUCAGGGCACGAUACCAGCUGAUCCGGUGGCCCUUGGCAGCGUGACGAGUGGUCAUGAGGAUCACACG [?fmullin] | 176
AAAGCCACUUCGGCCGCCACUACAACAUGAGGAUCACCCAUGUACCUCGUGUACGGUCCGAGGAGUAGGACCGGGAAGUGGUGGA [(T1'')-(Trp1)-(Ms2)-(M')-(T2')-(M'')-(Trp2)-(T1')] | 193
UGUCCUCAUGCGGCCGCCACUGUCGGCCGCCACUAAACCUGAGGAUCACCCGGGUAGGACCGGGACAGGACCGGGCAUGGGUGCU [#DoubleAptamer 4 #AlternativeMS2] | 486
AAUAACAAGAGGAUCACCCUUGUAAAAGAUACCAGAGUGAUGAUCCUCCCUUGGCAGCUUAACGCUGAUUGAUUACAAUCAGCGA | 81.8
AUACAUGAGGAUCACCCAUGUGAUGGCCGGCGAGGACCGGUACGGCCGCCACUCGUGAUCCGUCCUGAAAGCAAAGCUCCCAGCA [Lalazare] | 244
GACCCAUGAGUUGGAAAAGCUCAUGGGUCGCGAGGACCGGUACGGCCGCCACUCGGCUGUACAUGAGGAUCACCCAUGUCAGGGU [#1 Same State - Tryptophan A Attempt #25 (HarryS)] | 614
AGUCUUAAUGGAAGGAGCGCAGUCAUAACAUGAGGAUCACCCAUGUCGAUGUGAGGGUCAUUGCAGGUAGGUCGCCAUACUAAGA [Same State - Arginine B (Freestyle 4)] | 25
GGGCAAGAGGGAAGGAGCGUUAGCUGAGUCACAUGAGGAUCACCCAUGUCGCACAUAGUAUGACAGGUAGGUCGCCCUCUACCCU [SS-ArgB14] | 28.7

Source: the supplement of paper PMC9170038
